US20260001953A1
pKd: −log10 of the molar value.

Target: Sialic acid-binding immunoglobulin-like lectin 8 (SIGLEC-8), antigen of the Carterra SPR studies (UniProt Q9NYZ4)
Assay: SPR cross-reactivity table

Sialic acid-binding immunoglobulin-like lectin 8 (SIGLEC-8), antigen of the Carterra SPR studies, sequence (Q9NYZ4 17-363 limits assumed): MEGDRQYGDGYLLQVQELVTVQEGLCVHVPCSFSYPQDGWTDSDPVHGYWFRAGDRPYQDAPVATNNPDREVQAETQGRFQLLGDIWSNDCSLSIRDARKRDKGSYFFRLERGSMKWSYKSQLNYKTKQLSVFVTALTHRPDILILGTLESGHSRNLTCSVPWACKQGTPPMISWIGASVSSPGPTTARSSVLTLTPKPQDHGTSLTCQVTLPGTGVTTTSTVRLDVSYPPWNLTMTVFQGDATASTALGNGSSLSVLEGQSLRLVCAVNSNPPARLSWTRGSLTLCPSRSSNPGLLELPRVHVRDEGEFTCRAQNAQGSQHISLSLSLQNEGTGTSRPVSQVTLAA

pKd: 10.51
Substance: Control (antibody)
